Results: article PMC7229184, “Cryo-EM structure of the volume-regulated anion channel LRRC8D isoform identifies features important for substrate permeation” (Communications Biology, 2020)

Molecular target: the molecule itself
Assay: cryo-EM structure; purified HsLRRC8D in 50 mM Tris pH 8.0, 150 mM NaCl, 5 mM dithiothreitol, 0.1% digitonin, 3 mg/mL, vitrified; single-particle analysis, C2 symmetry imposed; homo-hexamer ('dimer of trimers')

B1: human LRRC8D (leucine-rich repeat-containing 8 isoform D) wild-type protein (natural protein)
chain: MFTLAEVASLNDIQPTYRILKPWWDVFMDYLAVVMLMVAIFAGTMQLTKDQVVCLPVLPSPVNSKAHTPPGNAEVTTNIPKMEAATNQDQDGRTTNDISFGTSAVTPDIPLRATYPRTDFALPNQEAKKEKKDPTGRKTNLDFQQYVFINQMCYHLALPWYSKYFPYLALIHTIILMVSSNFWFKYPKTCSKVEHFVSILGKCFESPWTTKALSETACEDSEENKQRITGAQTLPKHVSTSSDEGSPSASTPMINKTGFKFSAEKPVIEVPSMTILDKKDGEQAKALFEKVRKFRAHVEDSDLIYKLYVVQTVIKTAKFIFILCYTANFVNAISFEHVCKPKVEHLIGYEVFECTHNMAYMLKKLLISYISIICVYGFICLYTLFWLFRIPLKEYSFEKVREESSFSDIPDVKNDFAFLLHMVDQYDQLYSKRFGVFLSEVSENKLREISLNHEWTFEKLRQHISRNAQDKQELHLFMLSGVPDAVFDLTDLDVLKLELIPEAKIPAKISQMTNLQELHLCHCPAKVEQTAFSFLRDHLRCLHVKFTDVAEIPAWVYLLKNLRELYLIGNLNSENNKMIGLESLRELRHLKILHVKSNLTKVPSNITDVAPHLTKLVIHNDGTKLLVLNSLKKMMNVAELELQNCELERIPHAIFSLSNLQELDLKSNNIRTIEEIISFQHLKRLTCLKLWHNKIVTIPPSITHVKNLESLYFSNNKLESLPVAVFSLQKLRCLDVSYNNISMIPIEIGLLQNLQHLHITGNKVDILPKQLFKCIKLRTLNLGQNCITSLPEKVGQLSQLTQLELKGNCLDRLPAQLGQCRMLKKSGLVVEDHLFDTLPLEVKEALNQDINIPFANGI
notes: Residues of the TEV site may remain at the C-terminus after cleavage; also called HsLRRC8D; not shown: GFP, C-terminal, cleaved; His8, C-terminal, cleaved
stoichiometry N: 6
